{"source": "paper doi:10.1101/2020.10.15.340570", "about": "“Coordination of RNA and protein condensation by the P granule protein MEG-3”", "target": "T1, MEG-3 HMGL- (Caenorhabditis elegans, UniProt Q9TXM1 1-862, F705A;Y708A;Y713A;N725A)", "T1 sequence": "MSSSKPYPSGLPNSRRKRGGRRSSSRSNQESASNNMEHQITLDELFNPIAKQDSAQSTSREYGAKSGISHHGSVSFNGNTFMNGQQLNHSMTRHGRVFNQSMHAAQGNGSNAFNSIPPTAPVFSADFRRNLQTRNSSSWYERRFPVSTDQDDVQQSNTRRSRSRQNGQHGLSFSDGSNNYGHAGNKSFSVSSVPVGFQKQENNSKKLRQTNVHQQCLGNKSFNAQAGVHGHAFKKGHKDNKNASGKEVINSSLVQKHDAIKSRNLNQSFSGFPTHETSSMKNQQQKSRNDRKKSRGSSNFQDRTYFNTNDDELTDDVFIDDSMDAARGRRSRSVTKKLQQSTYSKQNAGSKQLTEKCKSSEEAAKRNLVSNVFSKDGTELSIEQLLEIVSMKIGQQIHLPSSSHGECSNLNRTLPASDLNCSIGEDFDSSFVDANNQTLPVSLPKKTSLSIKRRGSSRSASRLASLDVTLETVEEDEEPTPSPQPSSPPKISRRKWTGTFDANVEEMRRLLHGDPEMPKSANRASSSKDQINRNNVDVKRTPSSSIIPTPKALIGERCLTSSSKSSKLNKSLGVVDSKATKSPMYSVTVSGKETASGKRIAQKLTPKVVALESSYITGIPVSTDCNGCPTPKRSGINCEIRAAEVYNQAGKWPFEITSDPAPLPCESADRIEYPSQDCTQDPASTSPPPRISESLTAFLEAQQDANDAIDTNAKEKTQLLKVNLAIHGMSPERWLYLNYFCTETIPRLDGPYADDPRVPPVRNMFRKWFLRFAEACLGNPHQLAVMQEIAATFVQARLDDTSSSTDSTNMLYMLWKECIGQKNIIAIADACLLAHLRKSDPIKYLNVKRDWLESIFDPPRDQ", "test": "filter binding; high affinity, similar to wild type; Kd only in figure; 50 nM RNA, 3.75 mM HEPES (stock pH 7.4), 150 mM NaCl, 0.9 mM beta-mercaptoethanol, 1.5% glycerol, 10 mM Tris HCl, 30 min, room temperature", "conditions": "protein: recombinant; tags: N-terminal 6xHis (pET28a); label: 3' fluorescein; single strand"}
{"binder": "UUUUUUUUUUUUUUUUUUUUUUUUUUUUUU (ssRNA)", "note": "[30U RNA (poly-U30)]", "values": [{"measurement": "binding result", "result": "binds"}]}
